Target: T1, human TNF-α (human, UniProt P01375 77-233)
T1 construct: It was biotinylated in the plaque lift and on-rate ELISA, and coated on plates or beads in the other assays; also called hTNF-α; hTNF
Assay: kinetic exclusion assay (KinExA 3000), 40 pM Fab with 400 pM hTNF-α, time course
Experimental: Next, binding kinetics of three of the Fab fragments described in Table 4 were determined in a kinetic exclusion assay. Affinity measurements were performed on a KinExA™3000 instrument (Sapidyne Instruments, Inc., Boise, Id.) using Fab fragments (A10K, A9K, and A10P) released from the periplasmic space whose concentration was determined by a quantitative ELISA. Briefly, antigen and antibody fragment were allowed to react in solution and the fraction of unbound reagent was determined by capture and measured on a bead support. Binding kinetics can be determined or calculated from the amount of unbound reagent. For instance, after interaction between TNF-α and a Fab fragment has occurred in solution, binding of the unreacted, free Fab fragment to TNF-α coated beads can be measured on the instrument by detection with a labeled secondary antibody to the Fab fragment (e.g., a goat anti-IgG (heavy and light)). […] After the incubation, the amount of unbound Fab in the equilibrated samples was determined on the KinExA™3000 instrument according to the manufacturer's instructions. Kd values were determined by the instrument software.
To measure kₒₙ, individual Fab fragments at a concentration of 40 pM were mixed with 400 pM of hTNF-α. […] The resulting data was used to calculate the kₒₙ with the instrument software. koff was calculated by using the formula Kd=koff/kₒₙ.

T1 sequence (P01375 77-233 limits assumed): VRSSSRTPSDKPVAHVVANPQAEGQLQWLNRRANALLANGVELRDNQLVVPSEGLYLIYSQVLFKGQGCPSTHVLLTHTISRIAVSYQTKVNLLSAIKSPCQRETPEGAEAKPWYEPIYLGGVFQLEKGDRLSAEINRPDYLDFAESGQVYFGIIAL

B1: A10K Fab fragment (Fab, V domains shown)
VH: EVQLVESGGGLVQPGGSLRLSCAASGFKFSNHWMNWVRQAPGKGLEWVGEIRSKSMNSATHYAESVKGRFTISRDDSKNSLYLQMNSLKTEDTAVYYCARNYYGSTYDHWGQGTLVTVSS
VL: EIVLTQSPDFQSVTPKEKVTITCRASQFVGYSIHWYQQKPDQSPKLLIKYASESRSGVPSRFSGSGSGTDFTLTINSLEAEDAATYYCQQSHSWHFTFGQGTKVEIK
notes: Fab released from the E. coli periplasm; The light chain is kappa, since it was detected with anti-human kappa; Mutations against hu1: light S31Y, M55R
  kon: 3.92e+06 to 7.51e+06 M⁻¹ s⁻¹

— patent US20040131613A1 (published 2004)
